# Test results taken from the supplement of paper PMC12042874.
# ± gives the uncertainty stated by the source.
# Test: amyloid nucleation score (Sup35N fusion, yeast selection) (log enrichment); library NNK1; higher = more nucleation; inactive = no reads after selection
# In short: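 The nucleation score is the DiMSum log enrichment of output over input reads, centred on the mode score of non-aggregating sequences. Only sequences with 100 or more input reads were scored, using Illumina sequencing of input and output plasmid inserts. Psi-negative yeast expressing Sup35N fused to peptides of 20 random codons were induced 24 hours with 100 μM copper sulfate and grown 7 days at 30°C on medium lacking adenine and uracil.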
row,Substance,amyloid nucleation score
1,GYSGGKLLVGGTYTRIV,0.243 ± 0.43
2,SWLVPR,-0.104 ± 0.25
3,SITADLGHNSVALGVALLVI,-0.057 ± 1.7
4,RSNCWFEV,0.035 ± 0.4
5,DFVLIIFFCPCRYCSSTHTT,3.32 ± 0.2
6,TPTSSIPTPPRFPALTC,-0.72 ± 0.41
7,ISFDSLWDCSYS,-0.232 ± 0.23
8,QRGAVVQDLAM,0.728 ± 0.71
9,GISGLVLSYGADSGPGTWGK,-0.63 ± 0.42
10,AFPSVRSAFSYLVVPCTICT,0.606 ± 0.53
11,DIILLYSLFADIFISGRIYT,-0.13 ± 0.58
12,LRSVPRSRSF,0.783 ± 0.41
13,TWSYGLASDEVGPDAVVIVY,0.495 ± 1
14,SLDYLIFPVLDDGKKYMFVM,1.33 ± 0.46
15,YYASVTYFILYSHRIELVVR,1 ± 0.65
16,RTMKRSLSCVHCLLCLSPCQ,-0.102 ± 0.29
17,SVSFEDDISMASGCCFLRGC,-0.146 ± 0.25
18,VWRHGHNELRIRYAVSLYM,0.608 ± 0.46
19,RNCNNVYFELSVLASFLRVR,8.107 ± 0.05
20,KFWTGPIRYVN,-0.149 ± 0.31
21,KILVVGHRESIMCTDSYIMW,-0.294 ± 0.59
22,MLNELWVQRWINLSLKYDNQ,0.957 ± 0.45
23,SSNYADNEGSAHQFGNRRES,-0.108 ± 0.43
24,LMYPSGQSKRWIYRLYMGYR,inactive
25,VWPAQGS,-0.325 ± 0.8

row,Substance,amyloid nucleation score
1,IQGGKNYRKQDHTRHVTTGT,-1.37 ± 2.4
2,NLSSTEYAFNISDGEKRHED,0.186 ± 0.9
3,ELRSIDTWYPASGCML,-0.187 ± 0.29
4,NCIVFVSPASTKDCKWGAAS,1.66 ± 0.35
5,SNYFVSVDRGIWSCCYMCSF,7.474 ± 0.063
6,ICTVSLLYFVYDKYCHNATL,-0.444 ± 0.56
7,SLWIKQLRERVANFLAGFEG,inactive
8,GGFHYAVDWSCLRNIVWADL,-1.2 ± 2.4
9,ASRYGSLVPRVVKHLMTRGN,-1 ± 0.67
10,SCLKSDVYVCCEDLRRLDCV,-0.453 ± 0.38
11,KWKVR,-0.068 ± 0.38
12,WAYVAALRGYCYVGGRYLYT,-0.91 ± 1.2
13,SYLTGAEFFSTVRK,-0.745 ± 1.7
14,KVEVWRVLGNSVQRRFSKDQ,0.353 ± 1.1
15,VGPAANHIGHIVRWCRPGGP,0.33 ± 0.5
16,HCPCGCYTPFLAKRMSSVLV,0.362 ± 0.26
17,SKTGRGTLVMEVSRCEVYDF,0.027 ± 1.7
18,MDARKTGTDNWRTS,-0.202 ± 0.32
19,GSFYSGI,1.6 ± 0.76
20,EFVLGGASRVELY,-0.624 ± 0.64
21,VYYYVNTVCWSARFHVGSGR,-0.561 ± 0.74
22,YYWRPIQVVCLLASCKRTWR,7.749 ± 0.064
23,TGPKRLTDNREFRKF,-1.01 ± 2.7
24,NVNEDRPAGALVLEFLNRTL,1.47 ± 0.69
25,LIFMMDEVMYNGVSCFVRRE,0.136 ± 0.69

row,Substance,amyloid nucleation score
1,WLGVNDSLGFICEAVGWYGW,0.604 ± 0.63
2,LVFTNTLSTIFNNLHCYMWE,4.49 ± 0.12
3,RLCRYLKYRYG,0.839 ± 1.1
4,LSSRFAWCIWGET,0.956 ± 0.73
5,FFFRKTSY,0.552 ± 0.87
6,YMLSLSPPRRC,0.25 ± 0.33
7,FENFVASFLPNFGITLRKGQ,0.043 ± 0.24
8,IPNISGYPHICMESGGSLVC,0.004 ± 0.61
9,VAPVEYICELTLWA,-1.22 ± 2.7
10,DQVTYRPWLRELRRQAMCLQ,0.027 ± 1.7
11,VIHRIIDVLF,-0.06 ± 0.57
12,WNMFGS,0.848 ± 0.29
13,SAGGHSLSVTYWSGCSLRTV,0.272 ± 0.23
14,LSHWMPVN,-0.527 ± 0.34
15,GLVFWNIYCRNFYLL,6.83 ± 0.078
16,DSLGGSKSCGSKL,0.891 ± 0.97
17,KCIGKHEAVMKIFNWDEENW,1.73 ± 0.49
18,YYMRGTKRRIVRVYFWMLRC,1.59 ± 0.4
19,DPYTHYVAMRINCYWEMCAL,-1.06 ± 0.93
20,WLGYMDMDNGARQNQYSETG,-0.942 ± 1.4
21,VIKDFNDNYTGFRHYSKILI,-0.634 ± 1.7
22,ILLLVSISMVKESDQWLING,-0.519 ± 0.51
23,ASDMSCMQSNSYFNLWTYTM,1.32 ± 0.4
24,KTSFSCSIRSSYVDWGLGDS,2.66 ± 0.12
25,RLLFLMSWSSVVWINCRVWS,0.657 ± 0.6

row,Substance,amyloid nucleation score
1,NCGGRVSG,8.076 ± 0.06
2,KLVLSYRYNDG,2.17 ± 0.18
3,IECCFAYGRYLMWVGMYGSK,0.79 ± 0.59
4,PQPYTRNIERLAYVFTLDMP,-0.21 ± 0.27
5,IIASGHDFL,-0.732 ± 0.87
6,AFAVTASAITTVPPYREFVG,-0.545 ± 0.82
7,SVKYMVIDFQLKRMEVVINK,0.354 ± 0.36
8,RSYCKRALMLDWFAISRMRL,0.082 ± 0.51
9,HHWNLIEHYMLDECMEHLNS,-0.183 ± 0.31
10,SWFWHPYFCHRRIGSMGDGV,-0.017 ± 0.58
11,TLDLWNVRFC,-0.057 ± 1.4
12,AYYGDGFAKGTMLMTS,-0.35 ± 0.32
13,VNVFRNLFVTTDLWLSSTQN,-0.437 ± 0.66
14,MRQAGACNLRQSHVEQVCQQ,0.135 ± 0.38
15,YWTDGLFGDAT,0.141 ± 0.31
16,KGYGRFMSFF,-0.697 ± 0.4
17,VLGRITAIFSVCGLVAVRDN,5.63 ± 0.076
18,NGSYCKQILSRYVCRGECLH,-1.85 ± 1.4
19,DDLWSCMFELDAYMSFYLKA,inactive
20,YAFWFLCGYALP,2.92 ± 0.12
21,ILTRRSLLRLWIIISDKSFR,-0.695 ± 1.4
22,THVSDFLWDVNVSGNNTCSR,1.14 ± 0.37
23,GYARILKDLGYPFPYDLQHL,inactive
24,SIFVFRLYFLYGLV,0.606 ± 0.44
25,RCGCERTYSFR,-0.027 ± 0.72

row,Substance,amyloid nucleation score
1,FVIDACIFC,9.445 ± 0.071
2,SNVVNFDNNEDYLDTCRYLI,0.734 ± 0.97
3,SFALLTQLNEYKTARMKRAG,0.64 ± 0.35
4,MTMKLFRQD,-0.049 ± 1.1
5,VCYAKTAVFSMCGFIWSR,0.163 ± 0.77
6,YMKLKRVDMSVYSCCLVFGH,-0.648 ± 0.73
7,YFGLRSVKRWQT,-0.106 ± 0.52
8,IVGVYLSLNWRHPSRQGSGC,0.321 ± 0.19
9,MGGRSPMELAISRVVVVVKW,inactive
10,RLNHEFFGYKRKTKLAGGLR,-0.107 ± 1.2
11,GWTIKSSYYG,-0.906 ± 1.4
12,SYDRNDFLGERSVGMH,0.736 ± 0.36
13,TQSTLGSMTIASDYCTTE,1.42 ± 0.34
14,RLDCIHNFALNSYFRIGAWG,-0.215 ± 0.45
15,LLGAR,0.272 ± 0.79
16,NICDFLIYVYYLRSVCDI,-0.358 ± 0.41
17,CIILKTIPIIDY,inactive
18,VSLLSVWFDTHYIWSITGVD,-0.247 ± 0.45
19,GKERCDRMNKTLFLTFSYII,-0.281 ± 0.71
20,YRLCSMSMRCGLRSIFSNRL,0.606 ± 0.57
21,GCCSEDFNINGVFCSCPKFC,7.157 ± 0.057
22,FPMWYYH,-0.366 ± 0.74
23,TRTESVMVLWRRMAVGGCGR,0.362 ± 0.65
24,SMAGEFWSVLFFCESIWGGD,4.83 ± 0.12
25,HDLEIPICTWEYSVVIQGLQ,0.005 ± 1.4

row,Substance,amyloid nucleation score
1,SASPLVAMDNVGCA,-0.748 ± 0.37
2,ILGVFNTIVVFKR,4.9 ± 0.066
3,LEDHVWKVVVYLSKNDVCMG,0.269 ± 0.67
4,YGVVYNIWHFIEMKGDYTHA,6.869 ± 0.055
5,EIWWMVKVQLSVEYSSGNRL,1.16 ± 0.39
6,CTEFRFF,0.314 ± 0.47
7,HVNSFKLGNGSFHFWY,0.634 ± 0.38
8,YKIVIKSGQSAN,-0.252 ± 0.28
9,VDPYQVNYLNKLVTENYRVS,0.097 ± 0.33
10,NGNEYMVHRHADKWNTGQYR,5.83 ± 0.084
11,QGKKPGGFQNEDMVVVLKWR,-0.601 ± 0.46
12,RALRGSECGMNRRPLRGCVK,-0.167 ± 0.22
13,TVEYNRPFCRFIFCGSGYRH,-1.2 ± 0.92
14,LTLLA,-0.096 ± 1.7
15,DNAYPHPCSIYYNNNQFLRF,6.734 ± 0.054
16,DWNSNPPHSASAGLPLRFWK,inactive
17,IGTSFVYNYFDHFLK,5.59 ± 0.062
18,TFSWYRLRSVMGLVGNAAMI,0.31 ± 0.61
19,HGYFSNMWSYRRYQLLKLSP,0.664 ± 0.77
20,NWGVIVMFTYYRSSSGNLAC,1.35 ± 0.45
21,KNKGCGGKAEYTLAPIEISM,0.364 ± 0.55
22,PFRMQNDIVRDQYSVKLQWF,3.29 ± 0.17
23,YKDIMHHVN,inactive
24,SCRTLANITLCPRSIQF,0.055 ± 0.65
25,CLDVFASISMRHFYFVFMCY,0.487 ± 0.75

row,Substance,amyloid nucleation score
1,LNCWLNRSVYVRLNRQDGKT,2.5 ± 0.31
2,LRNAVFVDPSCNYYVFILRL,3.72 ± 0.15
3,WIWYFLGRGGYVACRSTKVW,0.016 ± 1.2
4,SEEGGNTASNRVDWYTTGIV,0.95 ± 0.48
5,WKGLRYLNFYFTE,4.52 ± 0.059
6,YRGWVVQGIHLKFSCFAELR,0.333 ± 0.97
7,MFNKVSLSVWASFVWKIIIH,-0.654 ± 0.83
8,TISGLFLSRLYSKTMGGC,1.89 ± 0.62
9,DIYRRSVGGRWLRLFSRRVV,0.209 ± 0.39
10,RASSFAEIPVVSCDGGLVKW,-0.129 ± 0.41
11,CVRLHPSDWAFYRAPFNKHG,0.659 ± 0.55
12,TTCSVVRDFYSLIFCTKCPY,4.03 ± 0.063
13,VQGYTYGGCDGFMEWLGKLI,-0.295 ± 0.61
14,LTFMFTTRIA,-0.912 ± 1.1
15,LCDLWQHFSSSNVTGGLRRN,0.966 ± 0.54
16,RNQDLLHFLVVGIAVKKYNY,-0.598 ± 0.35
17,FRSFLLPR,0.644 ± 0.54
18,SRVCYNRWLKLWDSDRPVIG,-0.001 ± 0.36
19,FFRRDFFFYNSLGMH,0.233 ± 1.4
20,TLGAYQSCRGNVIMGQGTFV,0.266 ± 0.46
